Target: T1, endogenous secreted MMP-2 in conditioned media of SYF and SYF+c-Src mouse embryonic fibroblast cells (mouse (endogenous protein of mouse …, UniProt P33434 30-662, limits assumed))
T1 construct: also called endogenous secreted MMP-2 in SYF CM
Assay: Ni-NTA pulldown from SYF CM, immunoblot
Procedure: Pulldown and co-pulldown experiments were performed from CM and immunoblots were followed. […] Data represent three independent experiments.
Equal amounts of isolated cell extract proteins were incubated with HisPur Ni-NTA Resin (ThermoScientific) for 2 hours at 4° C. Immunopellets were washed 4 times with fresh lysis buffer (20 mM HEPES pH 7.0, 100 mM NaCl, 1 mM MgCl2, 0.1% NP40, protease inhibitor cocktail (Roche) and PhosSTOP (Roche)). […] Pulldowns were also performed using conditioned media concentrated ˜10× using Amicon Ultra 10K centrifugal filters (Millipore) according to the manufacturer's protocol. HiPur Ni-NTA Resin was used to pulldown His6-tagged TIMP-2 from concentrated conditioned media. Briefly, HisPur Ni-NTA Resin was washed 3 times by vortexing resin with 0.1% NP40 lysis buffer and pipetting off supernatant. Concentrated conditioned media was combined with washed HisPur Ni-NTA Resin, and placed on rotator at 4° C. for 1 hour. Wash step was repeated 4 times with 1% NP40 buffer+150 mM NaCl to reduce non-specific binding of proteins to resin. 5× protein loading buffer was added to resin and boiled for 5 minutes.

T1 sequence (P33434 30-662 limits assumed): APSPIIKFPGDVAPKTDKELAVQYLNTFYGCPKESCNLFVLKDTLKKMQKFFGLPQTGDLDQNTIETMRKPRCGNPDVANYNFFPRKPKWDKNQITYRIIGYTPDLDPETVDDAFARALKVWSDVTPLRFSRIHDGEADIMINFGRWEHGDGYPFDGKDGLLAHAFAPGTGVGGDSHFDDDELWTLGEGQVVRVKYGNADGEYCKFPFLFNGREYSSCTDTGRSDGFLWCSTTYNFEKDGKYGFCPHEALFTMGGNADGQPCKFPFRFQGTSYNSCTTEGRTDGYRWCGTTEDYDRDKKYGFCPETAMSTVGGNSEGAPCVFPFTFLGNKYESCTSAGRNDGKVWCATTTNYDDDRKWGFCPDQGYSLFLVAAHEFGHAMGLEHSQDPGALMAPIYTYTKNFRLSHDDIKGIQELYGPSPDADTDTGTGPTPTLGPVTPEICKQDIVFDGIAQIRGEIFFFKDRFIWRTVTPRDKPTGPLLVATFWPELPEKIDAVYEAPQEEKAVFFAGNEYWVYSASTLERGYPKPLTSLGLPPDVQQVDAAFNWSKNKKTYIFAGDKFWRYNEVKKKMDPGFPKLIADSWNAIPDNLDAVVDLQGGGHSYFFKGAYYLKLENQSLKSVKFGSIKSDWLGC

B1: TIMP-2 Y62F/Y90F/Y165F-His6 (other)
chain: CSCSPVHPQQAFCNADVVIRAKAVSEKEVDSGNDIFGNPIKRIQYEIKQIKMFKGPEKDIEFIFTAPSSAVCGVSLDVGGKKEYLIAGKAEGDGKMHITLCDFIVPWDTLSTTQKKSLNHRYQMGCECKITRCPMIPCFISSPDECLWMDWVTEKNINGHQAKFFACIKRSDGSCAWYRGAAPPKQEFLDIEDPHHHHHH
notes: also called TF; triple F mutant
binding result: no binding

Source: US20190322724A1 (RESEARCH FOUNDATION FOR THE STATE UNIVERSITY OF NEW YORK, published 2019)
